We go through one molecule from US20200148732A1 (UNIVERSITY OF COPENHAGEN, published 2020).

Where a chain is given by its changes, count along the chain named.

One assay concerns the target T1, GFP-TONSL E530A (Homo sapiens, UniProt Q96HA7 1-1378).
T1 construct: also called TONSL E530A / GFP; not shown: N-terminal GFP tag
T1 sequence: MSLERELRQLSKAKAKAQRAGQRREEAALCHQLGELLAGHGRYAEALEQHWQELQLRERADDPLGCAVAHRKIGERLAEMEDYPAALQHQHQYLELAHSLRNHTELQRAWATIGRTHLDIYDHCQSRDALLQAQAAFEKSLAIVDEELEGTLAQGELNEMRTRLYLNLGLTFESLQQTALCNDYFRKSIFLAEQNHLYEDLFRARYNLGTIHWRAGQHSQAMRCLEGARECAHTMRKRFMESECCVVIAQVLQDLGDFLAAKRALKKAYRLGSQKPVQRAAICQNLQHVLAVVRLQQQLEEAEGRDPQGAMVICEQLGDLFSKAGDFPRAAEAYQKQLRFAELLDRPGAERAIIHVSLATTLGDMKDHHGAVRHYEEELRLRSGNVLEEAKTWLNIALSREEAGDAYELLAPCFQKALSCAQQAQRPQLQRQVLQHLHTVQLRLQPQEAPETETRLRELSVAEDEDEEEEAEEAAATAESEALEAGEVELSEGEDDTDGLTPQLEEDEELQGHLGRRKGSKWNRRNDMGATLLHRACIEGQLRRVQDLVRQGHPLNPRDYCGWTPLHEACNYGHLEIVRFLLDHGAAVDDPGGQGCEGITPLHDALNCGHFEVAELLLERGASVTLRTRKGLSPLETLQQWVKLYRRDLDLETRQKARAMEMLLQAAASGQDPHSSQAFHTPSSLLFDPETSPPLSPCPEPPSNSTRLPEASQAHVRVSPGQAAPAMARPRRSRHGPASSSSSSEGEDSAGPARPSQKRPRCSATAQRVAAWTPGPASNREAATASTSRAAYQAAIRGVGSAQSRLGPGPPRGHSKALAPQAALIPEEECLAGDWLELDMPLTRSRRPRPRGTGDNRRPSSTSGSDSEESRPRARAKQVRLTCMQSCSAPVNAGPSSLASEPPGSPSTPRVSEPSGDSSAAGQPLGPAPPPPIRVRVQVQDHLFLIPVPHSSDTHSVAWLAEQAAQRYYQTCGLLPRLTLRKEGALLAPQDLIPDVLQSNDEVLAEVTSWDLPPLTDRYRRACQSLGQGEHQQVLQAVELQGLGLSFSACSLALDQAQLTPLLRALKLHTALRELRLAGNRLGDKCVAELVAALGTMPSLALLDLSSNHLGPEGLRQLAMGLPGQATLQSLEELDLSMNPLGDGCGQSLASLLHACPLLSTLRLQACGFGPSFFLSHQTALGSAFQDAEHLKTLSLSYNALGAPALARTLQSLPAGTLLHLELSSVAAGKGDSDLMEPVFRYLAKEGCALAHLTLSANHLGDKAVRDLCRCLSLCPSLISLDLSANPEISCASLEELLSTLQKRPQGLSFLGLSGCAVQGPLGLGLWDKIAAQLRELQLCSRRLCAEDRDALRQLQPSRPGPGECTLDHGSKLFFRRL
As to the kind of experiment: GFP immunoprecipitation of GFP-TONSL from transfected HeLa S3 cells, western blot (co-IP; association may be indirect). In general terms: In western blotting, separated proteins are transferred to a membrane and probed.

Assay [1] deals with T2, GFP-TONSL wild type (full length) (Homo sapiens, UniProt Q96HA7 1-1378).
T2 construct: Expressed in U-2-OS or HeLa S3 cells; assayed in cell extracts; also called GFP-TONSL WT; TONSL WT / GFP; not shown: N-terminal GFP tag
T2 sequence: T1 sequence with A530E
The description is as above.

B1: MMS22L (endogenous, in cell extracts) (other, UniProt Q6ZRQ5 1-1243, looked up)
chain: MENCSAASTFLTDSLELELGTEWCKPPYFSCAVDNRGGGKHFSGESYLCSGALKRLILNLDPLPTNFEEDTLEIFGIQWVTETALVNSSRELFHLFRQQLYNLETLLQSSCDFGKVSTLHCKADNIRQQCVLFLHYVKVFIFRYLKVQNAESHVPVHPYEALEAQLPSVLIDELHGLLLYIGHLSELPSVNIGAFVNQNQIKLFPPSWHLLHLHLDIHWLVLEILYMLGEKLKQVVYGHQFMNLASDNLTNISLFEEHCETLLCDLISLSLNRYDKVRSSESLMSDQCPCLCIKELWVLLIHLLDHRSKWFVSESFWNWLNKLLKTLLEKSSDRRRSSMPVIQSRDPLGFSWWIITHVASFYKFDRHGVPDEMRKVESNWNFVEELLKKSISVQGVILEEQLRMYLHCCLTLCDFWEPNIAIVTILWEYYSKNLNSSFSISWLPFKGLANTMKSPLSMLEMVKTCCCDKQDQELYKSSSSYTIFLCILAKVVKKAMKSNGPHPWKQVKGRIYSKFHQKRMEELTEVGLQNFFSLFLLLAAVAEVEDVASHVLDLLNFLKPAFVTSQRALIWKGHMAFLLMYAQKNLDIGVLAEKFSCAFREKAKEFLVSKNEEMVQRQTIWTLLSIYIDGVQEVFETSYCLYPSHEKLLNDGFSMLLRACRESELRTVLSFLQAVLARIRSMHQQLCQELQRDNVDLFVQSSLSAKERHLAAVASALWRHFFSFLKSQRMSQVVPFSQLADAAADFTLLAMDMPSTAPSDFQPQPVISIIQLFGWDDIICPQVVARYLSHVLQNSTLCEALSHSGYVSFQALTVRSWIRCVLQMYIKNLSGPDDLLIDKNLEEAVEKEYMKQLVKLTRLLFNLSEVKSIFSKAQVEYLSISEDPKKALVRFFEAVGVTYGNVQTLSDKSAMVTKSLEYLGEVLKYIKPYLGKKVFSAGLQLTYGMMGILVKSWAQIFATSKAQKLLFRIIDCLLLPHAVLQQEKELPAPMLSAIQKSLPLYLQGMCIVCCQSQNPNAYLNQLLGNVIEQYIGRFLPASPYVSDLGQHPVLLALRNTATIPPISSLKKCIVQVIRKSYLEYKGSSPPPRLASILAFILQLFKETNTDIYEVELLLPGILKCLVLVSEPQVKRLATENLQYMVKACQVGSEEEPSSQLTSVFRQFIQDYGMRYYYQVYSILETVATLDQQVVIHLISTLTQSLKDSEQKWGLGRNIAQREAYSKLLSHLGQMGQDEMQRLENDNT
As to B1, the binding result (in the assay with GFP-TONSL E530A; in assay [1]) was “binds” each time.
